Values quoted from earlier work, collected in US20230295339A1, “METHOD FOR TREATING A GD2-POSITIVE CANCER” (EUSA PHARMA (UK) LIMITED, priority 2020, published 2023).

Experiments:
[1] = for Kd: read-out: apparent kD for binding to GD2

| Molecule | binding preference for GD2 versus the related glycan structure GQ2 [1] | binding preference for GD2 versus the related glycan structure GT2 [1] | Kd [1] [nM] | tolerability of cumulative dose in maintenance treatment (10 days, 10 mg/m^2/day, 35-day intervals, 5 cycles, cumulative 500 mg/m^2 in 175 days) | toxicity in subsequent cycles (in vivo) |
| --- | --- | --- | --- | --- | --- |
| humanized 3F8: murine anti-GD2 antibody 3F8 humanized as naxitamab (antibody, chains of the INN, looked up, V domains shown) VH: QVQLVESGPGVVQPGRSLRISCAVSGFSVTNYGVHWVRQPPGKGLEWLGVIWAGGITNYNSAFMSRLTISKDNSKNTVYLQMNSLRAEDTAMYYCASRGGHYGYALDYWGQGTLVTVSS VL: EIVMTQTPATLSVSAGERVTITCKASQSVSNDVTWYQQKPGQAPRLLIYSASNRYSGVPARFSGSGYGTEFTFTISSVQSEDFAVYFCQQDYSSFGQGTKLEIK | 200 | 1500 | 7.7 | – | – |
| dinutuximab beta: chimeric (murine/human) anti-GD2 IgG1 monoclonal antibody produced in CHO cells (antibody, chains of the INN, looked up, V domains shown) VH: EVQLLQSGPELEKPGASVMISCKASGSSFTGYNMNWVRQNIGKSLEWIGAIDPYYGGTSYNQKFKGRATLTVDKSSSTAYMHLKSLTSEDSAVYYCVSGMEYWGQGTSVTVSS VL: EIVMTQSPATLSVSPGERATLSCRSSQSLVHRNGNTYLHWYLQKPGQSPKLLIHKVSNRFSGVPDRFSGSGSGTDFTLKISRVEAEDLGVYFCSQSTHVPPLTFGAGTKLELK | – | – | – | feasible and well-tolerated | decrease of dinutuximab beta toxicity in subsequent cycles |
| Unituxin: chimeric anti-GD2 antibody ch14.18 produced in SP2/0 murine hybridoma cells (antibody, chains of the INN, looked up, V domains shown) VH: EVQLLQSGPELEKPGASVMISCKASGSSFTGYNMNWVRQNIGKSLEWIGAIDPYYGGTSYNQKFKGRATLTVDKSSSTAYMHLKSLTSEDSAVYYCVSGMEYWGQGTSVTVSS VL: EIVMTQSPATLSVSPGERATLSCRSSQSLVHRNGNTYLHWYLQKPGQSPKLLIHKVSNRFSGVPDRFSGSGSGTDFTLKISRVEAEDLGVYFCSQSTHVPPLTFGAGTKLELK | 1000 | > 5000 | 60 | – | – |
